From patent publication US20210214459A1 (Novartis, published 2021) come the findings set out here.

Sequences and labels used below:
B1: 374.B (antibody, human IgG4 S228P, kappa, V domains shown)
VH: EVQLLESGGGLVQPGGSLRLSCAASGFTFSYNAMSWVRQAPGKGLEWVSSISGTGGSTYYADSVKGRFTISRDNSKNTLYLQMNSLRAEDTAVYYCARGGLYGSGSYLSDFDLWGRGTLVTVSS
VL: EIVLTQSPATLSVSPGERATLSCRASQSVGSNLAWYQQKPGQAPRLLIYGASTRATGIPARFSGSGSGTEFTLTISSLQSEDFAVYYCQQHNAFPYTFGGGTKVEIKR
notes: IgG4 S228P/L235E format; Heavy chain entry ends in X, wherein X is K or absent; Biotinylated in the whole blood assay
B2: 377.B (antibody, IgG4, V domains shown)
VH: EVQLLESGGGLVQPGGSLRLSCAASGFTFKSYAMSWVRQAPGKGLEWVSAISGSGSYTYYADSVKGRFTISRDNSKNTLYLQMNSLRAEDTAVYYCARGGLYGSGSYLSDFDLWGRGTLVTVSS
VL: EIVLTQSPATLSVSPGERATLSCRASQSVGSNLAWYQQKPGQAPRLLIYGASTRATGIPARFSGSGSGTEFTLTISSLQSEDFAVYYCQQHNAFPYTFGGGTKVEIK
notes: IgG4 S228P/L235E format (.B construct); Biotinylated in the whole blood assay
B3: 379.B (antibody, human IgG4 S228P, kappa, V domains shown)
VH: EVQLLESGGGLVQPGGSLRLSCAASGFTFSRYAMSWVRQAPGKGLEWVSSISGTGGSTYYADSVKGRFTISRDNSKNTLYLQMNSLRAEDTAVYYCARGGLYGSGSYLSDFDLWGRGTLVTVSS
VL: EIVLTQSPATLSVSPGERATLSCRASQSVGSNLAWYQQKPGQAPRLLIYGASTRATGIPARFSGSGSGTEFTLTISSLQSEDFAVYYCQQHNAFPYTFGGGTKVEIKR
notes: as for B1
B4: 356.B (antibody, human IgG4 S228P, kappa, V domains shown)
VH: QVQLQESGPGLVKPSETLSLTCTVSGGSIEGRYWSWIRQPPGKGLEWIGYIYGSGSTKYNPSLKSRVTISVDTSKNQFSLKLSSVTAADTAVYYCARESQESPYNNWFDPWGQGTLVTVSS
VL: DIQMTQSPSSVSASVGDRVTITCRASQGISSWLAWYQQKPGKAPKLLIYAASSLQSGVPSRFSGSGSGTDFTLTISSLQPEDFATYYCQQGNSFPRTFGGGTKVEIKR
notes: as for B1
B5: 358.B (antibody, human IgG4 S228P, kappa, V domains shown)
VH: QVQLQESGPGLVKPSETLSLTCTVSGGSISGRYWSWIRQPPGKGLEWIGYIYGTGSTNYNPSLKSRVTISVDTSKNQFSLKLSSVTAADTAVYYCARESQESPYNNWFDPWGQGTLVTVSS
VL: DIQMTQSPSSVSASVGDRVTITCRASQGISSWLAWYQQKPGKAPKLLIYAASSLQSGVPSRFSGSGSGTDFTLTISSLQPEDFATYYCQQGNSFPRTFGGGTKVEIKR
notes: as for B1
B6: 350.B (antibody, human IgG4 S228P, kappa)
heavy: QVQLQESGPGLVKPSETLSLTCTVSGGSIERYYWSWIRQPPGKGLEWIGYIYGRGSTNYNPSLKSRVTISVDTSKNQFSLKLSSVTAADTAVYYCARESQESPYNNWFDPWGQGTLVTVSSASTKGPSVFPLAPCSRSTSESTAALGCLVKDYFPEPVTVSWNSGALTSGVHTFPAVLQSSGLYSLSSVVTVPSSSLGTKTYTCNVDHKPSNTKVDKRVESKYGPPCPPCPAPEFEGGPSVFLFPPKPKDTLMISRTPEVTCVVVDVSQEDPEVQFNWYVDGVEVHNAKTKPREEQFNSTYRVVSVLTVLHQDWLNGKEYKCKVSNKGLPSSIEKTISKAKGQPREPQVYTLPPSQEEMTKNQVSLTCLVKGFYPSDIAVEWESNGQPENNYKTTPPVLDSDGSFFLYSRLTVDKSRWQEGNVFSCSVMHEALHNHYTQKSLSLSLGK
light: DIQMTQSPSSVSASVGDRVTITCRASQGISSWLAWYQQKPGKAPKLLIYAASSLQSGVPSRFSGSGSGTDFTLTISSLQPEDFATYYCQQGNSFPRTFGGGTKVEIKRTVAAPSVFIFPPSDEQLKSGTASVVCLLNNFYPREAKVQWKVDNALQSGNSQESVTEQDSKDSTYSLSSTLTLSKADYEKHKVYACEVTHQGLSSPVTKSFNRGEC
notes: as for B1

This test has as its target T1, human CD73 expressed on the cell surface (human, UniProt P21589 27-549).
T1 construct: whole, on cells; also called surface CD73
T1 sequence (looked up): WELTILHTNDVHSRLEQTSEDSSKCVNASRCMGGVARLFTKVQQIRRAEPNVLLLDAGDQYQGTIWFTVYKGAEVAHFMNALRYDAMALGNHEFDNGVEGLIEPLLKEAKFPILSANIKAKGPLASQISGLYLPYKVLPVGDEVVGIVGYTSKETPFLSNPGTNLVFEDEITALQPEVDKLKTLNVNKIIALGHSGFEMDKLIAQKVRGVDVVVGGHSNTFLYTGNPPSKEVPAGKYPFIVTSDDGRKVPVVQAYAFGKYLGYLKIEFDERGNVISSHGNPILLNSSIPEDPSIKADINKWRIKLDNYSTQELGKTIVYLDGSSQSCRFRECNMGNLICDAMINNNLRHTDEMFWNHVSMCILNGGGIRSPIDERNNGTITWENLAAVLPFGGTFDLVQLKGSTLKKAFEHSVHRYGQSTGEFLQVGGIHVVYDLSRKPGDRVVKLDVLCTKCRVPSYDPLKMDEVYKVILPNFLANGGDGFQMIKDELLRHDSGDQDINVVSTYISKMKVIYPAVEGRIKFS
As to the kind of experiment: flow cytometry, biotinylated antibody on CD8+ T cells in human whole blood, streptavidin-APC detection. The method, then: Whole blood target engagement was assessed by flow cytometry using whole blood from healthy human donors. Briefly, biotinylated antibodies were incubated with whole blood for 30 minutes prior to red blood cell lysis and fixation. Fixed cells were stained for CD3 and CD8 to identify CD8+ T cells, and streptavidin-APC to detect biotin. After staining, the cell were washed and subjected to flow cytometry analysis.
In general terms: In flow cytometry, cells or beads pass a laser one at a time.
Regarding B1, the EC50 (read off the curve) (usually the midpoint of the concentration-response curve) was around 6 ng/mL.
With B2 the figure was around 5 ng/mL; with B3, around 6 ng/mL.
As for B4, the “EC50 (read off the curve)” value is around 5 ng/mL.
Next, B5: around 4 ng/mL; B6: around 5 ng/mL.
